Data on one molecule can be found in paper PMC2794166.

In this series the target is T1, mPOT1a_N (mouse, UniProt Q91WC1 1-300).
T1 sequence: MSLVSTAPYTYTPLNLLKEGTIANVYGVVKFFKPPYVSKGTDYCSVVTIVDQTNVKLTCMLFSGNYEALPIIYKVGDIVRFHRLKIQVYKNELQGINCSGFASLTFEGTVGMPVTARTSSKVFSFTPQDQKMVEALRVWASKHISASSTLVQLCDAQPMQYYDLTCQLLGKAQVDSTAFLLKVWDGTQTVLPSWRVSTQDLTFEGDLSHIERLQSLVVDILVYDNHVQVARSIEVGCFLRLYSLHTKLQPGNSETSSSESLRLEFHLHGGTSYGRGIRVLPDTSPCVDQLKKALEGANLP
Briefly: EMSA. In general terms: In EMSA bound probe runs differently from free probe, usually more slowly.

Consider TTAGGGTTAGGG (ssDNA) [(TTAGGG)2], for which the binding result is “no binding”.
